US20090075898A1, “Complement C3A Derived Peptides and Uses Thereof” (Yeda Research and Development Co. Ltd. at the Weizmann …, priority 2005, published 2009)

Columns and labels:
rat FcεRI β chain = assay: Surface plasmon resonance, immobilized extracellular loop peptides of rat FcεRI β chain; conditions: SPR
[1] = system: bone marrow derived mast cells (BMMC); assay: Secretory response (β-hexosaminidase release) of bone marrow derived mast cells; assay type: cell-based, mouse
Method: Cells. Bone marrow derived mast cells (BMMC) were prepared from Balb/c mice as described by Nagao et al. (Science 212: 333-335, 1981). After 3 weeks, an approximately 95% pure mast cell population was obtained, showing high expression of FcεRI and stem cell factor receptor (c-kit), as measured by flow cytometry.
(§1) Secretory response of mast cells.
Similar experiments were carried out using bone-marrow derived mast cells (BMMC). […] The control peptide of the sequence DVSNYITR had no effect on either system.

RBL-2H3 cells = conditions: Erdei et al. 1995, 1999; cited from earlier work
human FcεRI β chain = assay: Surface plasmon resonance, immobilized extracellular loop peptides of human FcεRI β chain; conditions: SPR
[2] = system: rat peritoneal mast cells (RPMC); assay: Secretory response (β-hexosaminidase release) of rat peritoneal mast cells; assay type: cell-based; conditions: non-sensitized cells, no antigen
Source text: Rat peritoneal mast cells (RPMC) were isolated as previously described (Kim et al. J. Immunol. 162:4960-4965, […]). Mast cell preparations were ca. 95% pure, as evaluated by flow cytometric monitoring of FcεRI surface expression. Compound 48/80, a specific activator of serosal type mast cells elicited about 50% release of the total β-hexosaminidase content of the isolated rat peritoneal mast cells.
as §1
While mucosal type mast cells are non-responsive to peptidergic stimuli, the serosal type ones have been known for a long time to be stimulated by cationic secretagogues. The anaphylatoxic peptides C3a and C5a initiate the cells' secretory response by binding to their respective receptors expressed by serosal type mast cells. To investigate the effect of the peptides on this mast cell-type, RPMC were used. As expected, these cells did respond to both C5a and C3a (Table 2). However, degranulation was inhibited when peptides C3a7 or C3a9 were added to the IgE-sensitized RPMC and stimulated, 5 min later with a suboptimal antigen dose (Table 2).

B1: C5a: complement activation product C5a, anaphylatoxic peptide, isolated; used as control (protein)
chain: TLQKKIEEIAAKYKHSVVKKCCYDGACVNNDETCEQRAARISLGPRCIKAFTECCVVASQLRANISHKDMQLGR
- Reaction with any tested sequences (1st and 2nd loop) of rat FcεRI β-chain (rat FcεRI β chain): did not react
- Inhibition of IgE-mediated secretory response of BMMC [1]: had no effect
- Inhibition of IgE-mediated degranulation of RBL-2H3 cells (literature) (RBL-2H3 cells): has no effect
- Reaction with any tested sequences (1st and 2nd loop) of human FcεRI β-chain (human FcεRI β chain): did not react
- Stimulation of secretory response of RPMC by the peptide itself [2]: did respond
